# Residue numbers refer to the chain shown, from its start.
# T1: mouse IL-2Rα (mouse) (UniProt P01590)
# T1 sequence (looked up): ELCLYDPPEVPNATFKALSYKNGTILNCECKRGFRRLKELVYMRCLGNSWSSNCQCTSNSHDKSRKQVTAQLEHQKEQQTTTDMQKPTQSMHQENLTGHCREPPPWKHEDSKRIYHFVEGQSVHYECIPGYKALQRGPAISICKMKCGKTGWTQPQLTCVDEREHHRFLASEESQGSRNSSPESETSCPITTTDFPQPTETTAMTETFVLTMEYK
# B1: FJ1427_P035MP01H08 (VHH)
# VHH: EVQLVESGGRLVQSGGSLRLSCAASGRAFSTHNMGWFRRAPGKEREFVAAISWNVDNKLYANSVKGRFAISRDNGRNMVYLQMNSLKPEDTAVYYCAADNIPLSSDMRATATEYDVWGQGTQVTVSS
# B2: 8-MP01C12 (VHH)
# VHH: QVQLVESGGGLVQPGGSLRLSCATSGFTFSNNFMSWVRQAPGKGLEFVSTISYGGESTTYAEAVKGRFTISRDNAKNTLYLQMNNLKPEDTAIYYCAKATSYTSIRGAPRGQGTQVTVSS
# B3: FJ1427_P035MP01C03 (VHH)
# VHH: B2 VHH with Q1E, S30R, F47W, A63S, I93V, T103D, G107S, A108G, P109S
# B4: FJ1427_P035MP01D09 (VHH)
# VHH: B2 VHH with T24A, F47W, A63S, I93V, T103D, G107S, A108G, P109S
# B5: FJ1427_P035MP01F03 (VHH)
# VHH: B2 VHH with T24A, F47W, A63S, I93V, T103D, I105V, G107S, A108G, P109S
# B6: FJ1427_P035MP01D03 (VHH)
# VHH: B2 VHH with Q1E, S30R, K43E, F47W, A63S, I93V, T103D, G107S, A108G, P109S
# B7: FJ1427_P035MP01F02 (VHH)
# VHH: QVQLQESGGGLVQAGGSLRLSCAASGRTFRTHNMGWFRRAPGKEREFVAAISWNIDNKLYADSVKGRSTISRDNGGNMVFLQMNSLKPEDTAVYYCAADKIPLSSDVAATATEYDDWGQGTQVTVSS
# B8: FJ1427_P035MP01B01 (VHH)
# VHH: EVQLVESGGGWVQAGDSLRLSCAASGRTFRNYVMGWFRQVPGKEREFLSVITSLGGTVYADSVANRFTISRDNPKDTVYLQMDSLKPEDTAVYYCAADRGPARYISASDVDYWGQGTQVTASS
# B9: FJ1427_P035MP01F08 (VHH)
# VHH: B8 VHH with A14P, T28S, V58L, Y59D, N65D, P74S, D76N, A121V
# B10: FJ1427_P035MP01D04 (VHH)
# VHH: B8 VHH with E1Q, A14P, T28S, S53W, V58L, Y59D, N65D, P74S, D76N, A121V
# B11: FJ1427_P035MP01H07 (VHH)
# VHH: EVQLVESGGGLVQAGGSLRLSCAASGRTLSGYAMAWFRQPPDKGREFVTAISSSGIVTHVLDSVKGRFTISRDNAKNTVYLQMNSLQPEDTALYFCAATASSYSDYEANYNYWGQGTLVTVSS
# B12: FJ1427_P035MP01G01 (VHH)
# VHH: QVQLQESGGGLVQAGGSLRLSCAASGRTFRTHNMGWFRRAPGKEREFVAAISWNVDNTLYADSVKGRFTISRDNDRNMVYLQMNSLKPEDTAVYFCAADNIPLSSDVRATATEFGYWGQGTRVTVSS
# B13: FJ1427_P035MP01E05 (VHH)
# VHH: B12 VHH with Q5V, K43E, A50V, T58K, D75G, F95Y, R122Q
# B14: FJ1427_P035MP01D08 (VHH)
# VHH: EVQLVESGGGLVQAGGSLRLSCAASGGTFRTRNMGWFRRAPGKEREFVAAVSWNVDNKLYAGSVKGRFTISRDNGRNMVYLQMNSLKPEDTAVYYCAADNIPLSSDMRPTATEYDYWGQGTQVTVSS
# B15: FJ1427_P035MP01H02 (VHH)
# VHH: QLQLVESGGGLVQAGDSLRLSCAASGRAFSRYAVGWFRMAPGKGREFVSAINSSGANTYVLDSVKGRFTISRDNDKNTAYLQMDSLQPEDTAVYWCAATSSSYSTYEANYNVWGQGTQVTVSS
# B16: FJ1427_P035MP01F06 (VHH)
# VHH: B15 VHH with D16G, R27G, N52D, S53L, A56T, Y59H, S85K, T105D, V112I
# B17: FJ1427_P035MP01A01 (VHH)
# VHH: EVQLVESGGGLVQAGDSLRLSCAASGRSFRNYILAWYRQAPGKEREFLAAISWLDGTLYADSVEDRFTISRDNPKNTVHLQMDNLKPEDTAVYYCAADRGPVRPVLAPDVDYWGQGTQVSVSS
# B18: FJ1427_P035MP01E04 (VHH)
# VHH: B17 VHH with E1Q, A24V, L58F, D61N, D65G, N84G, S120T, S122A
# B19: FJ1427_P035MP01E10 (VHH)
# VHH: B17 VHH with E1Q, N84S, S120T
# B20: FJ1427_P035MP01E07 (VHH)
# VHH: B17 VHH with E1Q, V5Q, D55E, N84S, S120T
# B21: FJ1427_P035MP01G03 (VHH)
# VHH: B17 VHH with E1Q, R99Q, S120T
# B22: FJ1427_P035MP01G07 (VHH)
# VHH: B17 VHH with E1Q, A14T, D65G, N84S, S120T
# B23: FJ1427_P035MP01E02 (VHH)
# VHH: B17 VHH with E1Q, S120T
# B24: FJ1427_P035MP01G04 (VHH)
# VHH: QVQLVESGGGLVQPGGSLRLSCAASGFTFSNNFMSWVRQAPGKGLEWVSTISYFGDSTRYAESVKGRFTISRDNEKNTLHLQMNNLKPEDTAVYYCAKATSYDSIRSGSRGRGTQVTVSS
# B25: FJ1427_P035MP01H05 (VHH)
# VHH: B24 VHH with Q1E, R59T, E75A, H80Y
# Biological target: T1, mouse IL-2Rα (mouse)
# Assay: ELISA, P.E. on coated antigen
row,OD (PE binding ELISA) [OD450 nm],Binder
1,0.047,B1
2,0.045,B2
3,0.045,B3
4,0.045,B4
5,0.045,B5
6,0.048,B6
7,0.046,B7
8,0.046,B8
9,0.046,B9
10,0.045,B10
11,0.049,B11
12,0.053,B12
13,0.046,B13
14,0.045,B14
15,0.047,B15
16,0.046,B16
17,0.046,B17
18,0.046,B18
19,0.046,B19
20,0.046,B20
21,0.048,B21
22,0.047,B22
23,0.046,B23
24,0.047,B24
25,0.046,B25

# — US20240409645A1
